Data as given in US20230243070A1 (Molecular Partners, published 2023).

Tests used:
[1] = biological target: T1, EBNApMHC (HLA-A*0201:EBNA-1), biotinylated recombinant complex (human; Epstein Barr virus); experiment: ribosome display selection, crude extract HTRF
[2] = biological target: T1, EBNApMHC (HLA-A*0201:EBNA-1), …; experiment: SPR (ProteOn), biotinylated pMHC on NLC chip
[3] = biological target: NYESOAApMHC (HLA-A*0201:NYESO1-9VAA), biotinylated recombinant complex (human); experiment: SPR (ProteOn), biotinylated pMHC on NLC chip
[4] = biological target: T2, NYESOpMHC (HLA-A*0201:NYESO1-9V), biotinylated recombinant complex (human); experiment: SPR (ProteOn), biotinylated pMHC on NLC chip, PBS with Tween
T2 construct: also called NY-ESO-1 peptide-MHC complex

B1: SEQ ID NO 97 (designed binder)
chain: GSDLGKKLLQAARAGQLDEVRELLKADADVNAKDTWGYTPLHLAAFHGHLEIVEVLLKAGADVNAKDELGKTPLHLAAYVGPLEIVEVLLKAGADVNAKDQHGYTPLHIAAAYGHLEIVEVLLKAGADVNAQDKSGKTPADLAARAGHQDIAEVLQKAA
binding result [1]: binds

B2: SEQ ID NO 103 (designed binder)
chain: GSDLGNKLLWAAYQGQDDEVRILLAAGADVNAKDYLGWTPLHIAATSGHLEIVEVLLKAGADVNAKDWYGYTPLHLAAEWGHLEIVEVLLKAGADVNAQDKSGKTPADLAADSGHEDIAEVLQKAA
binding result [1]: binds

B3: SEQ ID NO 94 (designed binder)
chain: GSDLGQKLLEAARKGQDDEVRELLKAGADVNAKDKAGWTPLHLAAYFGHLEIVEVLLKAGADVNAKDVIGWTPLHLAAWQGHLEIVEVLLKAGADVNAQDLKGQTPADLAAQEGNEDIAEVLQKAA
binding result [1]: binds

B4: SEQ ID NO 96 (designed binder)
chain: GSDLGKKLLQAARAGQLDEVRELLKAGADVNAKDLTGITPLHIAAREGHLEIVEVLLKAGADVNAKDAWGFTPLHVAAWTGHLEIVEVLLKAGADVNAKDLLGETPLHLAAEAGHLEIVEVLLKAGADVNAQDKSGKTPADLAARAGHQDIAEVLQKAA
binding result [1]: binds

B5: SEQ ID NO 106 (designed binder)
chain: GSDLGKKLLQAARAGQLDEVRELLKAGADVNAKDLAGVTPLHVAARAGHLEIVEVLLKAGADVNAKDAWGFTPLHIAAYQGHLEIVEVLLKAGADVNAKDLLGSTPLHVAAETGHLEIVEVLLKAGADVNAQDKSGKTPADLAARAGHLDIAEVLQKAA
binding result [1]: binds

B6: SEQ ID NO 109 (designed binder)
chain: GSDLGKKLLQAARAGQLDEVRELLKAGADVNAKDLSGVTPLHIAARSGHLEIVEVLLKAGADVNAKDAWGYTPLHVAAEHGHLEIVEVLLKAGADVNAKDHLGSTPLHIAASHGHLEIVEVLLKAGADVNAQDKSGKTPADLAARAGHQDIAEVLQKAA
binding result [1]: binds

B7: SEQ ID NO 108 (designed binder)
chain: GSDLGKKLLQAARAGQLDEVRELLKAGADVNAKDQTGWTPLHIAAHTGHLEIVEVLLKAGADVNAKDAVGFTPLHVAAWSGHLEIVEVLLKDGADVNAKDTSGATPLHLAAEWGHLEIVEVLLKAGADVNAQDKSGKTPADLAARAGHQDIAEVLQKAA
binding result [1]: binds

B8: SEQ ID NO 107 (designed binder)
chain: GSDLGKKLLQAARAGQLDEVRELLKAGADVNAKDLTGITPLHVAARSGHPEIVEVLLKAGADVNAKDAWGFTPLHVAAYKGHLEIVEVLLKAGADVNAKDQLGETPLHLAAAEGHLEIVEVLLKAGADVNAQDKSGKTPADLAARAGHQDIAEVLQKAA
binding result [1]: binds

B9: SEQ ID NO 93 (designed binder)
chain: GSDLGTKLLFAATLGQDDEVRILLAAGADVNAKDTIGRTPLHVAAHYGHLEIVEVLLKAGADVNAKDIYGFTPLHLAAYFGHLEIVEVLLKAGADVNAQDKTGKTPADLAAVIGHEDIAEVLQKAA
binding result [1]: binds

B10: DARPin® protein #32 (designed binder)
chain: MRGSHHHHHHGSDLGKKLLQAARAGQLDEVRELLKAGADVNAKDYFGSTPLHLAQLGHLEIVEVLLKAGADVNAKDYQGHTPLHVDAFHGHLEIVEVLLKAGADVNAKDQWGVTPLHLAAEWGHLEIVEVLLKAGADVNAQDKSGKTPADLAARAGHQDIAEVLQKAA
binding result [2]: no binding (tested: 3.7 nM to 300 nM, or 250 nM single trace) | binding result [3]: no binding | Kd [4]: 1.63 nM

B11: SEQ ID NO 98 (designed binder)
chain: GSDLGDKLLFAAELGQDDEVRILLAAGADVNAKDSFGQTPLHRVAANHGHLEIVEVLLKAGADVNAKDSSGHTPLHVAALTGHLEIVEVLLKAGADVNAQDESGFTPADLAADVGHEDIAEVLQKAA
binding result [1]: binds

B12: DARPin® protein #29 (designed binder)
chain: MRGSHHHHHHGSDLGKKLLQAARAGQLDEVRELLKAGADVNAKDRAGSTPLHLAAFRGHLEIVEVLLKAGADVNAKDAAGYTPLHLAALYGHLEIVEVLLKAGADVNAKDHAGSTPLHLAALAGHLEIVEVLLKAGADVNAQDKSGKTPADLAARAGHQDIAEVLQKAA
binding result [2]: no binding (tested: 3.7 nM to 300 nM, or 250 nM single trace) | binding result [3]: no binding | Kd [4]: 0.635 nM

B13: DARPin® protein #31 (designed binder)
chain: MRGSHHHHHHGSDLGKKLLQAARAGQLDEVRELLKAGADVNAKDATGQTPLHVAAFRGHLEIVEVLLKAGADVNAKDKAGYTPLHIAAYAGHLEIVEVLLKAGADVNAKDHAGWTPLHLAAILGHLEIVEVLLKAGADVNAQDKSGKTPADLAARAGHQDIAEVLQKAA
binding result [2]: no binding (tested: 3.7 nM to 300 nM, or 250 nM single trace) | binding result [3]: no binding | Kd [4]: 1.32 nM

B14: DARPin® protein #33 (designed binder)
chain: MRGSHHHHHHGSDLGKKLLQAARAGQLDEVRELLKAGADVNAKDAIGQTPLHLAAFRGHLEIVEVLLKAGADVNAKDVAGWTPLHIAAAYGHLEIVEVLLKAGADVNAKDAYGQTPLHLAAFQGHLEIVEVLLKAGADVNAQDKSGKTPADLAARAGHQDIAEVLQKAA
binding result [2]: no binding (tested: 3.7 nM to 300 nM, or 250 nM single trace) | binding result [3]: no binding | Kd [4]: 0.108 nM

B15: DARPin® protein #23 (designed binder)
chain: MRGSHHHHHHGSDLGIKLLYAANSGQDDEVRILLAAGADVNAKDEYGDTPLHKAAEYGHLEIVEVLLKAGADVNAKDVYGITPLHLAAIFGHLEIVEVLLKAGADVNAQDKKGHTPADLAAFVGHEDIAEVLQKAA
binding result [2]: no binding (tested: 3.7 nM to 300 nM, or 250 nM single trace) | binding result [3]: no binding | Kd [4]: 0.0939 nM

B16: SEQ ID NO 105 (designed binder)
chain: GSDLGKKLLQAARAGQLDEVRELLKAGADVNAKDQEGRTPLHIAAAHGHLEIVEVLLKAGADVNAKDAYGYTPLHLAAFIGHLEIVEVLLKAGAEVNAKDKYGETPLHIAALTGHLEIVEVLLKAGADVNAQDKSGKTPADLAARAGHQDIAEVLQKAA
binding result [1]: binds

B17: SEQ ID NO 95 (designed binder)
chain: GSDLGQKLLRAAQAGQDDEVRELLKAGADVNAKDEVGWTPLHLAAAWGHLEIVEVLLKAGADVNAKDHFGITPLHVAAELGHLEIVEVLLKAGADVNAQDLAGRAPADLAALEGHEDIAEVLQKAA
binding result [1]: binds

B18: SEQ ID NO 99 (designed binder)
chain: GSDLGAKLLFAAILGQDDEVRILLAAGADVNAKDETGHTPLHHAAHYGHLEIVEVLLKAGADVNAKDQYGFTPLHLAAYYGHLEIVEVLLKAGADVNAQDDDGITPADLAAAHGHEDIAEVLQKAA
binding result [1]: binds

B19: SEQ ID NO 100 (designed binder)
chain: GSDLGSKLLQAAAVGQDDEVRILLAAGADVNAKDDFGETPLHLAAWHGHLEIVEVLLKAGADVNAKDEQGFTPLHWAALTGHLEIVEVLLKAGADVNAQDKQGITPADLAANAGHEDIAEVLQKAA
binding result [1]: binds

B20: DARPin® protein #25 (designed binder)
chain: MRGSHHHHHHGSDLGNKLLSAAIRGQDDEVRILLAAGADVNAKDIHGHTPLHAAAQFGHLEIVEVLLKAGADVNAKDFYGLTPLHLAAIFGHLEIVEVLLKAGADVNAQDEEGKTPADLAAVIGHEDIAEVLQKAA
binding result [2]: no binding (tested: 3.7 nM to 300 nM, or 250 nM single trace) | binding result [3]: no binding | Kd [4]: 0.172 nM

B21: DARPin® protein #24 (designed binder)
chain: MRGSHHHHHHGSDLGEKLLYAAFYGQDDEVRILLTAGADVNAKDKYGLTPLHRAATHGHLEIVEVLLKAGADVNAKDEWGTTPLHIAAIFGHLEIVEVLLKAGADVNAQDEQGNTPADLAAVIGHEDIAEVLQKAA
binding result [2]: no binding (tested: 3.7 nM to 300 nM, or 250 nM single trace) | binding result [3]: no binding | Kd [4]: 0.939 nM

B22: SEQ ID NO 102 (designed binder)
chain: GSDLGHKLLIAAYLGQDDEVRILLAAGADVNAKDDFGITPLHVAAQVGHLEIVEVLLKAGADVNAKDKSGLTPLHLAAYYGHLEIVEDLLKAGADVNAQDYSGETPADLAASLGHEDIAEVLQKAA
binding result [1]: binds

B23: SEQ ID NO 104 (designed binder)
chain: GSDLGQKLLQAAQLGQDDEVRELLKAGADVNAKDTFGQTPLHPAAWSGHLEIVEVLLKAGADVNAKDKWGVTPLHLAAVSGHLEIVEVLLKAGADVNAQDLEGRTPADLAAKQGHEDIAEVLQKAA
binding result [1]: binds

B24: SEQ ID NO 110 (designed binder)
chain: GSDLGKKLLQAARAGQLDEVRELLKAGADVNAKDAAGWTPLHLAAAEGHLEIVEVLLKAGADVNAKDVVGQTPLHVAAVIGHLEIVEVLLKAGADVNAKDSAGYTPLHLAAREGHLEIVEVLLKAGADVNAQDKSGKTPADLAARAGHQDIAEVLQKAA
binding result [1]: binds

B25: DARPin® protein #30 (designed binder)
chain: MRGSHHHHHHGSDLGKKLLQAARAGQLDEVRELLKAGADVNAKDRFGIPLHIAASQGHLEIVEVLLKAGADVNAKDHWGETPLHLAAVFGHLEIVEVLLKAGADVNAKDHTGQTPLHLAAYLGHLEIVEVLLKAGADVNAQDKSGKTPADLAARAGHQDIAEVLQKAA
binding result [2]: no binding (tested: 3.7 nM to 300 nM, or 250 nM single trace) | binding result [3]: no binding | Kd [4]: 2.33 nM

B26: SEQ ID NO 101 (designed binder)
chain: GSDLGEKLLAAALVGQDDEVRILLAVGADVNAKDVAGRTPLHRAALAGHLEIVEVLLKAGADVNAKDQSGFTPLHLAAVDGHLEIVEVLLKAGADVNAQDEIGATPADLAARIGHEDIAEVLQKAA
binding result [1]: binds
